Data on 29 variants can be found in the supplement of paper PMC7125110.

± gives the standard error. This sample holds only a part of the variants without activity. Some results are limits rather than exact numbers.

To fix the notation:
B1: glmS ribozyme (parent)
chain: AUAAAAGCGCCAGAACUACAGAAAUGUAGUUGACGAGGAGGAGGUUUAUCGAAUUUUCGGCGGAUGCCUCCAAA

Common to all, as to conditions: with glucosamine-6-phosphate
Series [1] covers variants of B1. The experiment in a line: self-cleavage kobs at 40 uM GlcN6P; higher = faster cleavage; RNA array. The gist of the method: (§1)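 Ribozyme variants carrying barcodes were transcribed in situ on sequenced MiSeq chips by E. coli RNA polymerase and tracked at 37 °C with a hybridised Cy3 probe. They were exposed to 40 μM to 10 mM glucosamine-6-phosphate in HEPES/KCl/Mg(OAc)2 buffer. kobs came from exponential decay fits of normalised per-tile medians, and kcat and KM from weighted Michaelis–Menten fits.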

The variants in series [2] derive from B1. Kind of series: self-cleavage kobs at 640 uM GlcN6P; higher = faster cleavage; RNA array. In outline:
as §1

Variants of B1 are the subject of series [3]. Kind of series: self-cleavage kobs at 2500 uM GlcN6P; higher = faster cleavage; RNA array. The gist of the method: as §1
The variants in series [4] derive from B1. The experiment in a line: self-cleavage kobs at 10000 uM GlcN6P; higher = faster cleavage; RNA array. In outline:
as §1

Variants of B1 are the subject of series [5]. Kind of series: self-cleavage kobs at 160 uM GlcN6P; higher = faster cleavage; RNA array. The gist of the method: as §1

As to G63U G66U, the “self-cleavage kobs at 40 uM GlcN6P” value with glucosamine-6-phosphate [1] is less than 1e-05 s⁻¹. The “self-cleavage kobs at 640 uM GlcN6P” value with glucosamine-6-phosphate [2] was less than 1e-05 s⁻¹. Moreover, the “self-cleavage kobs at 2500 uM GlcN6P” value with glucosamine-6-phosphate [3] is less than 1e-05 s⁻¹. The “self-cleavage kobs at 10000 uM GlcN6P” value with glucosamine-6-phosphate [4] is less than 1e-05 s⁻¹.

For the variant C10G G63C, the “self-cleavage kobs at 40 uM GlcN6P” value in the series with glucosamine-6-phosphate [1] is less than 1e-05 s⁻¹. For the same variant, the “self-cleavage kobs at 160 uM GlcN6P” value with glucosamine-6-phosphate [5] is less than 1e-05 s⁻¹. Also, in the series with glucosamine-6-phosphate [2], the “self-cleavage kobs at 640 uM GlcN6P” value is less than 1e-05 s⁻¹. In the series with glucosamine-6-phosphate [3], the “self-cleavage kobs at 2500 uM GlcN6P” value was less than 1e-05 s⁻¹.

Consider U47C A48G C50G C70G, for which, in the series with glucosamine-6-phosphate [1], the “self-cleavage kobs at 40 uM GlcN6P” value was found to be 3.16e-05 ± 1.6e-05 s⁻¹.

For U30A G59A G63A, the “self-cleavage kobs at 40 uM GlcN6P” value in the series with glucosamine-6-phosphate [1] was less than 1e-05 s⁻¹.

As to C16U A33G, the “self-cleavage kobs at 40 uM GlcN6P” value with glucosamine-6-phosphate [1] was less than 1e-05 s⁻¹. Further, the “self-cleavage kobs at 10000 uM GlcN6P” value with glucosamine-6-phosphate [4] is less than 1e-05 s⁻¹.

As to G13A A39U C61U, in the series with glucosamine-6-phosphate [1], the “self-cleavage kobs at 40 uM GlcN6P” value was less than 1e-05 s⁻¹. For the same variant, the “self-cleavage kobs at 2500 uM GlcN6P” value in the series with glucosamine-6-phosphate [3] was less than 1e-05 s⁻¹.

A14U U30G C34U G40A A52G C68G: the “self-cleavage kobs at 40 uM GlcN6P” value with glucosamine-6-phosphate [1] is less than 1e-05 s⁻¹. Also, the “self-cleavage kobs at 10000 uM GlcN6P” value with glucosamine-6-phosphate [4] was less than 1e-05 s⁻¹.

For U56G C67A, the “self-cleavage kobs at 40 uM GlcN6P” value with glucosamine-6-phosphate [1] was 6.65e-05 ± 1.8e-05 s⁻¹. Also, in the series with glucosamine-6-phosphate [5], the “self-cleavage kobs at 160 uM GlcN6P” value was determined as 0.000207 ± 5.3e-05 s⁻¹. In the series with glucosamine-6-phosphate [2], the “self-cleavage kobs at 640 uM GlcN6P” value turned out to be 0.00102 ± 0.00014 s⁻¹. In the series with glucosamine-6-phosphate [3], the “self-cleavage kobs at 2500 uM GlcN6P” value was 0.000842 ± 0.00014 s⁻¹. The “self-cleavage kobs at 10000 uM GlcN6P” value with glucosamine-6-phosphate [4] is 0.00273 ± 0.00081 s⁻¹.

On to G13A A14U U31C, for which the “self-cleavage kobs at 40 uM GlcN6P” value with glucosamine-6-phosphate [1] turned out to be 7.34e-05 ± 1.8e-05 s⁻¹.

G13C A36C U46G C68A: in the series with glucosamine-6-phosphate [1], the “self-cleavage kobs at 40 uM GlcN6P” value is less than 1e-05 s⁻¹. The “self-cleavage kobs at 10000 uM GlcN6P” value with glucosamine-6-phosphate [4] was less than 1e-05 s⁻¹.

Take A48C G63A C70A: the “self-cleavage kobs at 40 uM GlcN6P” value with glucosamine-6-phosphate [1] is less than 1e-05 s⁻¹.

As for A42G G43U C70U, the “self-cleavage kobs at 40 uM GlcN6P” value with glucosamine-6-phosphate [1] was less than 1e-05 s⁻¹. The “self-cleavage kobs at 10000 uM GlcN6P” value with glucosamine-6-phosphate [4] is less than 1e-05 s⁻¹.

In the case of C10U C34G C58U, the “self-cleavage kobs at 40 uM GlcN6P” value in the series with glucosamine-6-phosphate [1] was less than 1e-05 s⁻¹.

For U31C A39U U54C C71U, the “self-cleavage kobs at 40 uM GlcN6P” value in the series with glucosamine-6-phosphate [1] was determined as 5.15e-05 ± 1.1e-05 s⁻¹. For the same variant, in the series with glucosamine-6-phosphate [3], the “self-cleavage kobs at 2500 uM GlcN6P” value was 0.000671 ± 0.00024 s⁻¹. For the same variant, the “self-cleavage kobs at 10000 uM GlcN6P” value in the series with glucosamine-6-phosphate [4] was found to be 0.00213 ± 0.00023 s⁻¹.

With A14U G40A G51U, in the series with glucosamine-6-phosphate [1], the “self-cleavage kobs at 40 uM GlcN6P” value was less than 1e-05 s⁻¹.

On to G29C A39C A48C G60A, for which the “self-cleavage kobs at 40 uM GlcN6P” value with glucosamine-6-phosphate [1] is less than 1e-05 s⁻¹. Also, in the series with glucosamine-6-phosphate [4], the “self-cleavage kobs at 10000 uM GlcN6P” value was less than 1e-05 s⁻¹.

Turning to U54C U65A, in the series with glucosamine-6-phosphate [1], the “self-cleavage kobs at 40 uM GlcN6P” value is 6.51e-05 ± 8.4e-06 s⁻¹. The “self-cleavage kobs at 640 uM GlcN6P” value with glucosamine-6-phosphate [2] was found to be 0.00147 ± 0.00042 s⁻¹. Also, in the series with glucosamine-6-phosphate [4], the “self-cleavage kobs at 10000 uM GlcN6P” value was determined as 0.00332 ± 0.00031 s⁻¹.

Regarding A39G U55G C67A, the “self-cleavage kobs at 40 uM GlcN6P” value in the series with glucosamine-6-phosphate [1] is 0.000369 ± 0.00011 s⁻¹. For the same variant, the “self-cleavage kobs at 10000 uM GlcN6P” value in the series with glucosamine-6-phosphate [4] was determined as 0.0117 ± 0.003 s⁻¹.

Regarding A6G A14G G32C G44A A53C U65G C68U, in the series with glucosamine-6-phosphate [1], the “self-cleavage kobs at 40 uM GlcN6P” value is less than 1e-05 s⁻¹. Also, in the series with glucosamine-6-phosphate [3], the “self-cleavage kobs at 2500 uM GlcN6P” value was less than 1e-05 s⁻¹.

With C8G C10U, the “self-cleavage kobs at 40 uM GlcN6P” value with glucosamine-6-phosphate [1] was less than 1e-05 s⁻¹. Moreover, the “self-cleavage kobs at 10000 uM GlcN6P” value with glucosamine-6-phosphate [4] is less than 1e-05 s⁻¹.

With A36U G43U C50U, the “self-cleavage kobs at 40 uM GlcN6P” value with glucosamine-6-phosphate [1] is less than 1e-05 s⁻¹.

G7A U30A U45C: the “self-cleavage kobs at 40 uM GlcN6P” value with glucosamine-6-phosphate [1] was less than 1e-05 s⁻¹. Further, the “self-cleavage kobs at 2500 uM GlcN6P” value in the series with glucosamine-6-phosphate [3] was less than 1e-05 s⁻¹. The “self-cleavage kobs at 10000 uM GlcN6P” value with glucosamine-6-phosphate [4] is less than 1e-05 s⁻¹.

For C10G C50G G63A C71U, the “self-cleavage kobs at 40 uM GlcN6P” value in the series with glucosamine-6-phosphate [1] amounted to 6.86e-05 ± 1.9e-05 s⁻¹. In the series with glucosamine-6-phosphate [4], the “self-cleavage kobs at 10000 uM GlcN6P” value came to 5.34e-05 ± 1.7e-05 s⁻¹.

On to C11U G62C, for which the “self-cleavage kobs at 40 uM GlcN6P” value with glucosamine-6-phosphate [1] was less than 1e-05 s⁻¹. The “self-cleavage kobs at 160 uM GlcN6P” value with glucosamine-6-phosphate [5] is less than 1e-05 s⁻¹. Moreover, the “self-cleavage kobs at 640 uM GlcN6P” value with glucosamine-6-phosphate [2] was less than 1e-05 s⁻¹. Moreover, the “self-cleavage kobs at 2500 uM GlcN6P” value with glucosamine-6-phosphate [3] was less than 1e-05 s⁻¹.

For A6G C8G C10G A52U G60A, the “self-cleavage kobs at 40 uM GlcN6P” value with glucosamine-6-phosphate [1] is less than 1e-05 s⁻¹.

As for C10U G38U G41A, the “self-cleavage kobs at 40 uM GlcN6P” value with glucosamine-6-phosphate [1] was less than 1e-05 s⁻¹.

With U46C A64U, in the series with glucosamine-6-phosphate [1], the “self-cleavage kobs at 40 uM GlcN6P” value was less than 1e-05 s⁻¹. Besides, the “self-cleavage kobs at 10000 uM GlcN6P” value with glucosamine-6-phosphate [4] worked out at 4.69e-05 ± 1.5e-05 s⁻¹.

For A15U U31A G32A A36U U57A C58G C71U, the “self-cleavage kobs at 40 uM GlcN6P” value in the series with glucosamine-6-phosphate [1] came out at 5.17e-05 ± 2.1e-05 s⁻¹. The “self-cleavage kobs at 10000 uM GlcN6P” value with glucosamine-6-phosphate [4] was 0.000109 ± 2.6e-05 s⁻¹.

On to A53U C70U, for which the “self-cleavage kobs at 40 uM GlcN6P” value in the series with glucosamine-6-phosphate [1] stood at 0.000741 ± 6.7e-05 s⁻¹. In the series with glucosamine-6-phosphate [5], the “self-cleavage kobs at 160 uM GlcN6P” value was 0.00102 ± 0.00023 s⁻¹. The “self-cleavage kobs at 640 uM GlcN6P” value with glucosamine-6-phosphate [2] is 0.00682 ± 0.0013 s⁻¹. Also, in the series with glucosamine-6-phosphate [3], the “self-cleavage kobs at 2500 uM GlcN6P” value was 0.00471 ± 0.0013 s⁻¹. For the same variant, the “self-cleavage kobs at 10000 uM GlcN6P” value in the series with glucosamine-6-phosphate [4] stood at 0.0335 ± 0.0084 s⁻¹.
